Measured values as given in patent US20250283063, “NOVEL CRISPR-CAS12I SYSTEMS AND USES THEREOF” (HUIDAGENE THERAPEUTICS (SINGAPORE) PTE. LTD., published 2025).
Where a chain is given by its changes, count along the chain named.

Tests used:
Conditions in all cases: tags: NLS
hfCas12Max (v6.3) [1] = target: T1, hfCas12Max (v6.3) (N243R,E336R,D892R); assay: cell_activity; PAM TTTG; on-target
T1 chain: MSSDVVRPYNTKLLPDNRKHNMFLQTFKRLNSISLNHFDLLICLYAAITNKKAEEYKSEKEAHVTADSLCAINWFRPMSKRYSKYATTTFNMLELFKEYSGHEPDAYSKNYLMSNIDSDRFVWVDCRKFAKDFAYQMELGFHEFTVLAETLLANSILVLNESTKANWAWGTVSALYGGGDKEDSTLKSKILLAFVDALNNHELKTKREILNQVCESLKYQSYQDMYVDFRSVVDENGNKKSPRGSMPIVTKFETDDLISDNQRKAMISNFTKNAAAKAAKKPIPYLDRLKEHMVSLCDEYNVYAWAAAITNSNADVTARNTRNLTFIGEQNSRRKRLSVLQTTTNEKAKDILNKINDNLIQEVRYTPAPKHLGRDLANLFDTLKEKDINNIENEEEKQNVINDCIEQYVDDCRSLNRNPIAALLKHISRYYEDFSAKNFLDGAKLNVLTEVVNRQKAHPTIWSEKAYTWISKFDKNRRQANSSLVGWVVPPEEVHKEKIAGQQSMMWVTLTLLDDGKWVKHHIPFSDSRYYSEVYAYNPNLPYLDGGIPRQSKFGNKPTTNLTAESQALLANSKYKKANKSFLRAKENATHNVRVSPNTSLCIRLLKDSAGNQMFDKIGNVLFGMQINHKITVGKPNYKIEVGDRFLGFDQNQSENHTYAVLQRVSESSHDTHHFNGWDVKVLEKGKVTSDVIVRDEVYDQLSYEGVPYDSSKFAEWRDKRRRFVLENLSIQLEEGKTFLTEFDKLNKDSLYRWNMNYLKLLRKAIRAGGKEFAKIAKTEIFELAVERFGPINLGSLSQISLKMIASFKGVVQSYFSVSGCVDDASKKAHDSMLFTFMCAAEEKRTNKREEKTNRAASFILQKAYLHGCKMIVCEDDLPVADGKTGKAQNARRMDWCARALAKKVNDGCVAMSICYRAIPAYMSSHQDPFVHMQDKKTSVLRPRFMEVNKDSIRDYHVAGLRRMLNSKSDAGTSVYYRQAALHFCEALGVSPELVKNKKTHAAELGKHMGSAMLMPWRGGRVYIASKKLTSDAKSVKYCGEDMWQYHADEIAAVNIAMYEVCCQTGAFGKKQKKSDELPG

hfCas12Max (v6.3) [2] = target: T1, hfCas12Max (v6.3); assay: cell_activity; PAM TTTG; OT-1
Protocol: (§1) HEK293T cells were cultured in 24-well tissue culture plates according to standard methods for 12 hours, before the reporter and expression plasmids were co-transfected into the cells using standard polyethyleneimine (PEI) transfection. The transfected cells were then cultured at 37° C. under 5% CO₂ for 48 hours. Then the cultured cells were analyzed by flow cytometry for BFP, EGFP, and mCherry fluorescent signals. A “blank” control group was also set up, where only the reporter plasmid was transfected, and no expression plasmid was introduced.
(§2) A dual plasmid fluorescent reporter system for evaluation of off-target dsDNA cleavage activity (off-target reporter system; referring to “Off-Target Reporter” in FIG. 1B) was established, which was similar to the dual plasmid fluorescent reporter system in Example 6 for evaluation of (on-target) dsDNA cleavage activity, except that the insertion sequence of the EGxxxxFP coding sequence contains an TTR off-target protospacer sequence (one of SEQ ID NOs: 127-129) containing one or more mismatches (bold, underlined) with a TTR-targeting spacer sequence (SEQ ID NO: 130) in the gRNA, rather than containing a TTR on-target protospacer sequence (SEQ ID NO: 130; which is the same as SEQ ID NO: 107 in Example 5); DR-T1 sequence (SEQ ID NO: 451) was used. To save drafting, the on-target protospacer sequence/spacer sequence in Table 7 refer to both the protospacer sequence (a DNA sequence) and the corresponding spacer sequence (an RNA sequence) with any “T” in the sequence when referring to a protospacer sequences standing for “T” and when referring to a such spacer sequence standing for “U”, although the assigned SEQ ID NO: 130 in the sequence listing is annotated as DNA.

xCas12i v6.1 = target: T2, xCas12i v6.1 (N243R,E336R,V880R); assay: cell_activity; PAM TTTG; OT-1
T2 chain: T1 chain with V880R, R892D
Protocol: as §1, §2

B1: TTR.2 crRNA ; TTR ON.1 (ssRNA ; dsDNA)
RNA: AUGACUCAGAAAUGUGUCCCCAGUUGACACUAGAAGGGAUAUACAAAGUGGA
DNA 1: TTTGTAGAAGGGATATACAAAGTGGA
DNA 2: TCCACTTTGTATATCCCTTCTACAAA
In the case of B1, the activity (hfCas12Max (v6.3) [1]) is reported as 77.7%.

B2: TTR.2 crRNA ; TTR OT.1 (ssRNA ; dsDNA)
RNA: B1 RNA
DNA 1: TTTGTAGAAGGGATATAGAAAGTATC
DNA 2: GATACTTTCTATATCCCTTCTACAAA
B2 gave an activity (hfCas12Max (v6.3) [2]) of 1.55% and an activity (xCas12i v6.1) of 2.04%.
